Experimental data: patent US20240344241A1, “PROTEINACEOUS MOLECULES AND USES THEREFOR” (THE UNIVERSITY OF QUEENSLAND, priority 2021, published 2024)
Each block holds one binder with its values, some of them ahead of it.

Columns and labels:
[1] = target: T1, human β-factor XIIa (human), P00748; assay: competitive protease inhibition assay, 0.5 nM FXIIa, Boc-QGR-MCA substrate (unit as printed; probably pM)
T1 chain 1: NGPLSCGQR
T1 chain 2: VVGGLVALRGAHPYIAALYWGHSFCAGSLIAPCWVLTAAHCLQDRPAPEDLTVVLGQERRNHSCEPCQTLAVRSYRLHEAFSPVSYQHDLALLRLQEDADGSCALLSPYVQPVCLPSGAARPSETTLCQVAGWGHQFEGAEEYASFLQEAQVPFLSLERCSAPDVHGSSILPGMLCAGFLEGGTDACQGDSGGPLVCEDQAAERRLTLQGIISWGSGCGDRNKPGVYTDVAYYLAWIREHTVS

[2] = target: human cationic trypsin (human), P07477; assay: competitive protease inhibition assay (selectivity panel), human trypsin, Boc-VPR-MCA
[3] = target: T2, recombinant human matriptase (human), Q9Y5Y6; assay: competitive protease inhibition assay (selectivity panel), human matriptase, Boc-QAR-MCA
T2 chain: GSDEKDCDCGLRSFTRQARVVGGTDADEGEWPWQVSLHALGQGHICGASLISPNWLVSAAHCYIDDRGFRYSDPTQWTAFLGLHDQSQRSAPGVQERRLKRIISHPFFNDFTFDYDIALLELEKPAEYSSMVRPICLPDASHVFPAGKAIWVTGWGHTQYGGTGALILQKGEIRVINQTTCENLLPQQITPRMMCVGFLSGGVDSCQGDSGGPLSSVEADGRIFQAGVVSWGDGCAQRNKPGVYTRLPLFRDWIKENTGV

[4] = target: T3, human plasmin (human), P00747; assay: competitive protease inhibition assay (selectivity panel), human plasmin, Ac-RM(O2)YR-pNA
T3 chain: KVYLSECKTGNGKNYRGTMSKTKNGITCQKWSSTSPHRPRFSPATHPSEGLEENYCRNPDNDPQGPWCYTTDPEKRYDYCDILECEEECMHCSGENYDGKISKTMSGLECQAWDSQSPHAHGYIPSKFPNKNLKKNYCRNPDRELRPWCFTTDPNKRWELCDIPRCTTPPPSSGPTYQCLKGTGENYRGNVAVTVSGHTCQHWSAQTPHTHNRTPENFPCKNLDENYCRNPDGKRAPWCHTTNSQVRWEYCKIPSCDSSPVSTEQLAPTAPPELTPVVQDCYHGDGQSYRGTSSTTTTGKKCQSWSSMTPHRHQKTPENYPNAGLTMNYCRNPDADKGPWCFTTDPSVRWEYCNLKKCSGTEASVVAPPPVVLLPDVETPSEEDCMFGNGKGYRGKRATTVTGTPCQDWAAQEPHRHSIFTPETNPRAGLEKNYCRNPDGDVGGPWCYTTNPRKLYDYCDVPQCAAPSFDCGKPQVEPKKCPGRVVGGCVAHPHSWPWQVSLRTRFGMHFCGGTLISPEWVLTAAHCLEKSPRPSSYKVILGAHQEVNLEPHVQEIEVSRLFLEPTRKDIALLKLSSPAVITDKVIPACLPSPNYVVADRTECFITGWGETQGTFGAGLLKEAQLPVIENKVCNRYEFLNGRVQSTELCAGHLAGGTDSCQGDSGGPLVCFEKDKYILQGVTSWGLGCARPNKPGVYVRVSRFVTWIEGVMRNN

[5] = target: T1, human β-factor XIIa (human), P00748; assay: competitive protease inhibition assay, Ac-QRFR-pNA substrate, Morrison Ki

Ki [1]: 1.09 nM
B1: Cyclic MCoFx6 (peptide)
peptide: GGICPRFGRLCRRDSDCPGACICRATRFCGSGSD
modifications: not checked

Ki [2]: 0.08 nM | Ki [3]: 17 nM | Ki [4]: 31 nM | Ki [5]: 66 nM
B2: cMCoTI-fxL5 (peptide)
peptide: DGGVCPKILKKCRRDSDCPGACICRATRFCGSGS
modifications: not checked
